Data taken from patent US12065466B2, “Methods and compositions for protein sequencing” (Quantum-Si Incorporated, priority 2020, dated 2024).
Read-outs that look alike come from different tables or passages of the source.

Legend:
[1] = target: T1, fluorescently-labeled peptide containing N-terminal phospho-tyrosine (Homo sapiens, UniProt P06241, C239S/C240S/C246S/K204L/S186A/T181V); test: Single-molecule recognition of modified amino acids by immobilized Fyn SH2 variant; assay type: binding
T1 construct: Src Homology 2 (SH2) domain from Fyn
Protocol: Experiments were performed to evaluate recognition of amino acids containing specific post-translation modifications. […] The variant protein was immobilized to the bottom of sample wells, and single-molecule signal traces were collected upon addition of a fluorescently-labeled peptide containing N-terminal phospho-tyrosine. […] Pulse duration data collected during these experiments is shown in FIG. 22B (top, middle, and bottom plots corresponding to the top, middle, and bottom traces of FIG. 22A, respectively). Pulse duration and interpulse duration statistics are shown in FIG. 22C (top and bottom panels, respectively). Control experiments were performed to confirm that the Fyn protein was specific for the phosphorylated tyrosine. The experiments were repeated for each of three different peptides: a first peptide containing N-terminal unmodified tyrosine (Y; FIG. 22D), a second peptide containing N-terminal and penultimate unmodified tyrosines (YY; FIG. 22E), and a third peptide containing N-terminal phospho-serine (FIG. 22F).

[2] = system: amino acid at a terminal position of a polypeptide; details: Table 2; amino acid identity at a terminal position (phosphotyrosine also internal); inferred from literature and/or demonstrated by the inventors; cited from earlier work
[3] = system: immobilized peptide containing N-terminal phenylalanine (FYPLPWPDDDY (SEQ ID NO: 235)); test: Simultaneous single-molecule recognition with differentially labeled recognition molecules; assay type: binding; details: 500 nM each binder
Protocol: Single peptide molecules containing N-terminal phenylalanine ([…] (SEQ ID NO: 235)) were immobilized in sample wells of a chip. Buffer containing 500 nM each of atClpS1 (Agrobacterium tumifaciens ClpS1; sequence provided in Table 1) and atClpS2-V1 (Agrobacterium tumifaciens ClpS2 variant 1; sequence provided in Table 1) was added, where atClpS1 and atClpS2-V1 were labeled with Cy3 and Cy3B, respectively. Since the intensity of Cy3B is higher than Cy3, atClpS2-V1 binding events were readily distinguishable from atClpS1 binding events.
The pulse duration distributions were distinct for each binder (FIG. 24B) and corresponded to their kinetic profiles as observed in single-binder experiments. Mean pulse duration was 1.3 seconds for atClpS1 and 1.0 seconds for atClpS2-V1 (FIG. 24C). Pulse rate was also distinct: 8.1 pulses/min for atClpS1 and 14.1 pulses/min for atClp2-V1 (FIG. 24C).

[4] = system: amino acid at a terminal position of a polypeptide; test: Amino acid binding preference of recognition proteins (Tables 1 and 2); details: Table 1, ClpS proteins; amino acid identity at a terminal position of a polypeptide; inferred from literature and/or demonstrated by the inventors
Source text: It should be appreciated that these sequences and other examples described herein are meant to be non-limiting, and recognition molecules in accordance with the application can include any homologs, variants thereof, or fragments thereof minimally containing domains or subdomains responsible for peptide recognition.

[5] = system: N-terminal amino acids of peptides; test: Single-molecule terminal amino acid recognition by labeled recognition molecule (dwell time analysis); assay type: binding
Protocol: An adaptor protein involved in proteolytic pathways was identified as a potential candidate for use as a labeled recognition molecule for detecting N-terminal aromatic residues. The adaptor protein, ClpS2 from an α-proteobacterium (A. tumefaciens), was expressed and labeled at an exposed cysteine residue. […] The exposed cysteine residue was labeled with a rhodamine dye (ATTO 532).
Peptides having different N-terminal aromatic residues were prepared to test whether the labeled ClpS2 was capable of N-terminal amino acid discrimination at the single molecule level.
FIG. 19C is a plot showing discriminant pulse durations (time duration of signal peaks) among the three N-terminal residues when reversibly bound by labeled ClpS2. FIG. 19D is a plot showing discriminant interpulse durations (time duration between signal pulses) among the three N-terminal residues. […] Mean pulse duration for the different N-terminal residues is visualized by histograms (A)-(B) and layered histogram (C).

[6] = system: FITC-labeled peptide (XAKLDEESILKQK-FITC (SEQ ID NO: 238)); test: Fluorescence polarization of ClpS:streptavidin complexes; assay type: binding; details: 30 minute incubation at 23° C.
Protocol: ClpS homologs were evaluated by fluorescence polarization to measure the interaction of a FITC-labeled peptide (XAKLDEESILKQK-FITC (SEQ ID NO: 238)) with ClpS:streptavidin complexes. Measurements of polarization response (millipolarization, mP) and total intensity for I, V, L, F, Y, and W were performed in a high-throughput 384-well plate format, using 480 nm excitation and 530 nm emission wavelength with readings collected after 30 minute incubation at 23° C. The results with in-solution binding validated that PS372 binds with leucine, isoleucine, and valine with strength of response in the order LA>IA>VA (FIG. 29E). Binding responses of atClpS2-V1 were FA>YA>WA, and those of teClpS were LA>FA>YA>WA.

[7] = system: immobilized peptides containing an N-terminal amino acid of interest (XAKLDEESILKQK; XXKLDEESILKQK); test: Biolayer interferometry screening of ClpS homologs; assay type: binding; details: for binding to isoleucine peptides, effect of penultimate amino acid: IR, IQ, IA peptides; for binding to valine peptides, effect of penultimate amino acid: VA, VR peptides
Protocol: The amino acid binding profile of each new homolog was evaluated by biolayer interferometry. ClpS proteins with known binding profiles (atClpS2-V1, atClpS1, and teClpS) were included as controls. In these assays, peptides containing an N-terminal amino acid of interest were immobilized on a biolayer interferometry sensor surface, allowed to bind to ClpS protein, and incubated in buffer to allow the ClpS molecules to dissociate. The binding response (nm) and dissociation off-rate (kdis, s^−1) were measured using a kinetic model. Measurements with each ClpS protein were carried out at 30° C. for the amino acids I, V, M, F. Y, and W, along with D, E, A, and R as negative controls. All peptides contained a penultimate alanine (A) and consisted of the sequence XAKLDEESILKQK (SEQ ID NO: 238).
Results from the biolayer interferometry screening of 61 ClpS homologs (58 new homologs, 3 reference homologs) are shown in FIG. 29B. Response (y-axis) is plotted against the inverse of dissociation rate for eight different dipeptides (data not shown for negative controls DA, AA, and RA). In these plots, higher values on the y-axis correspond to stronger association response and higher values on the x-axis indicate slower dissociation rates.
The effect of penultimate amino acids on isoleucine and valine binding by PS372 were evaluated by measuring binding to peptides with N-terminal IR, IQ, and VR by biolayer interferometry (peptide sequence: XXKLDEESILKQK (SEQ ID NO: 291)). Measurements were also obtained with teClpS for comparison.

[8] = system: LF, LA, IR, IA, VR, and VA peptides; test: Binder-on-chip single-molecule assay (PS372); assay type: binding
Protocol: Binder-on-chip experiments were performed for PS372 with LF, LA, IR, IA, VR, and VA peptides to evaluate recognition by signal pulse detection in single-molecule assays. […] For comparison, the mean pulse width observed with the L-binder teClpS was 768 ms (˜37% shorter than PS372).

[9] = system: peptides with different N-terminal amino acids, penultimate alanine; test: Biolayer interferometry of multivalent amino acid binders; assay type: binding
Protocol: The amino acid binding profile of each Bis-atClpS2-V1 binder (PS609, PS610, and PS611) was evaluated by biolayer interferometry as described above. The monovalent atClpS2-V1 was run as a control. Measurements with each binder were carried out for the amino acids F, Y, and W, along with I, L, M, and V as negative controls. All peptides contained a penultimate alanine (A). Response curves for the tandem binders PS609, PS610, and PS611 are shown in FIGS. 35B, 35C, and 35D, respectively.
The multivalent binder PS612 is a polypeptide that contains tandem copies of two different ClpS protein monomers (atClpS2-V1 and PS372). The amino acid binding profile of PS612 was evaluated by biolayer interferometry as described above. The monovalent binders atClpS2-V1 and PS372 were separately run as controls.
The multivalent binder PS614 is a polypeptide that contains two copies of the ClpS binder PS372 oriented in tandem. The amino acid binding profile of PS614 was evaluated by biolayer interferometry as described above.
The multivalent binders PS637, PS638, and PS639 are polypeptides that each contain two copies of the ClpS binder PS557 oriented in tandem and separated by Linker 1, Linker 2, and Linker 3, respectively. The amino acid binding profiles of each binder was evaluated by biolayer interferometry as described above.

[10] = system: N-terminal isoleucine peptide and N-terminal leucine peptide; test: Peptide-on-chip recognition assay with labeled PS372; assay type: binding

B1: H. sapiens Fyn SH2 domain triple mutant superbinder: SEQ ID NO: 117 (protein, listed as Homo sapiens)
chain: MGAMDSIQAEEWYFGKLGRKDAERQLLSFGNPRGTFLIRESETVKGAYALSIRDWDDMKGDHVKHYLIRKLDNGGYYITTRAQFETLQQLVQHYSERAAGLSSRLVVPSHK
peptide binding (single-molecule signal traces) ([1]; negative controls: N-terminal unmodified tyrosine (Y), YY, N-terminal phospho-serine): binding was not detected
peptide binding (single-molecule signal traces) ([1]; peptide containing N-terminal phospho-tyrosine): Peptide binding by the immobilized protein was detected
Binding Pref. [2]: phospho-Y

B2: atClpS1: Agrobacterium tumifaciens ClpS1, SEQ ID NO: 93 (protein, listed as Agrobacterium tumifaciens)
chain: MIAEPICMQGEGDGEDGGTNRGTSVITRVKPKTKRPNLYRVLLLNDDYTPMEFVIHILERFFQKDREAATRIMLHVHQHGVGECGVFTYEVAETKVSQVMDFARQHQHPLQCVMEKK
Pulse rate [3]: 8.1 pulses/min
mean pulse duration [3]: 1.3 s
Binding Pref. [4]: F, W, Y, L
recognition of terminal amino acids (dwell time analysis) [5]: differentiable recognition of phenylalanine, leucine, tryptophan, and tyrosine

B3: teClpS: ClpS protein, SEQ ID NO: 107 (protein, listed as Thermosynechococcus elongatus)
chain: MPQERQQVTRKHYPNYKVIVLNDDFNTFQHVAACLMKYIPNMTSDRAWELTNQVHYEGQAIVWVGPQEQAELYHEQLLRAGLTMAPLEPE
Binding Pref. [4]: F, W, Y, L
mean pulse duration ([5]; terminal leucine residue): 0.71 s
order of strength of polarization response [6]: LA>FA>YA>WA
binding to isoleucine peptides, effect of penultimate amino acid [7]: minor response with very fast dissociation for IR peptide only
binding to valine peptides, effect of penultimate amino acid [7]: no response with V peptides
mean pulse width ([8]; L-binder comparison, peptide not stated): 768 ms

B4: PS372: ClpS homolog binding leucine, isoleucine and valine, SEQ ID NO: 5 (protein)
chain: MAFPARGKTAPKNEVRRQPPYNVILLNDDDHTYRYVIEMLQKIFGFPPEKGFQIAEEVDRTGRVILLTTSKEHAELKQDQVHSYGPDPYLGRPCSGSMTCVIEPAV
Binding Pref. [4]: L, I, V
order of strength of polarization response [6]: LA>IA>VA
amino acids bound (biolayer interferometry) ([7]; 30° C., penultimate alanine): binder of leucine, isoleucine, and valine
binding to the F, Y, or W peptides ([7]; 30° C., penultimate alanine): did not show binding
binding to isoleucine peptides, effect of penultimate amino acid [7]: binds IQ and IA with higher affinity relative to IR
binding to valine peptides, effect of penultimate amino acid [7]: binds well with VA and has negligible response with VR
N-terminal amino acids bound (biolayer interferometry) [9]: binds N-terminal I, L, and V
mean pulse width ([8]; IA peptide): 70 ms
mean pulse width ([8]; IR peptide): 83 ms
mean pulse width ([8]; LA peptide): 876 ms
mean pulse width ([8]; LF peptide): 1207 ms

B5: dye-labeled PS372: PEGylated, biotinylated PS372 conjugated 1:1 with streptavidin and a biotinylated Cy3B-labeled oligonucleotide (conjugate)
chain: MAFPARGKTAPKNEVRRQPPYNVILLNDDDHTYRYVIEMLQKIFGFPPEKGFQIAEEVDRTGRVILLTTSKEHAELKQDQVHSYGPDPYLGRPCSGSMTCVIEPAV
mean pulse width ([10]; N-terminal isoleucine peptide (IAALAAVAADDDW (SEQ ID NO: 239))): 78 ms
mean pulse width ([10]; N-terminal leucine peptide (LAAIAAFAADDDW (SEQ ID NO: 292))): 957 ms
